Data on five molecules can be found in patent publication US20240360242A1 (KISOJI BIOTECHNOLOGY, published 2024).

B1: KD001 (antibody, human IgG1, V domains shown)
VH: QVQLQESGGGMVHPGGSLRLSCAASGFTFSGSDMSWVRQAPGKGPEWVSYITSGGTTYYPDSVKGRFTISRDNAKNTLYLQMNSLTPDDTALYRCAKARLTDSHYVEDAWGQGTQVTVSS
notes: also called anti-TROP2 sdAb KD001
B2: KD005 (antibody, human IgG1, V domains shown)
VH: B1 VH with M11L, H13E, P14A, T86K, A98S
notes: also called anti-TROP2 sdAb KD005
B3: KD004 (antibody, human IgG1, V domains shown)
VH: B1 VH with M11L, H13Q, G16R, S53G, G54S, I69T, T77M, T86K
notes: also called anti-TROP2 sdAb KD004
B4: KD002 (antibody, human IgG1, V domains shown)
VH: QVQLQESGGGMVQVGGSLRLSCAASGFPFSSADMSWVRQAPGKGPEWVSYINADGSKTYYPDSVKGRFTISRDNAKNTLYLLMNNLKPEDTALYRCARAKLTDTHYVEDYWGQGTQVTVSS
notes: also called anti-TROP2 sdAb KD002
B5: KD003 (antibody, human IgG1, V domains shown)
VH: B4 VH with V14P, P28T, S31N, A32Y, D54G, K57N, Y59D, T78M
notes: also called anti-TROP2 sdAb KD003

Residue numbers refer to the chain shown, from its start.

The first assay addresses T1, HEK-TROP2 Δ27-66 (human, UniProt P09758).
T1 construct: deletion of residues 27-66, transiently expressed on HEK cells
T1 sequence (membrane protein on transfected HEK cells, looked up): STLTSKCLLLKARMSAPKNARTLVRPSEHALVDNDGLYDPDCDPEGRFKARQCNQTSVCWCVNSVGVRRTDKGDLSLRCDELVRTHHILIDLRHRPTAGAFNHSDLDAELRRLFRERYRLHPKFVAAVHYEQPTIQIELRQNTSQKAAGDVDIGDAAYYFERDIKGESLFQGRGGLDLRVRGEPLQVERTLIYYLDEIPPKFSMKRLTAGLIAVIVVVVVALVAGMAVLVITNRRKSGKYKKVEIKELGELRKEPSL
The experiment in a line: flow cytometry, 100 nM antibody, transiently transfected HEK cells, APC anti-human Fc. Summed up:
(§1)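 HEK parental cells transiently transfected (lipofectamine) with human TROP2 truncation mutants, harvested 24 h later and Fc-blocked 10 min at RT. Anti-TROP2 sdAbs at 100 nM bound 30 min on ice, then detected with APC anti-human Fc (30 min) and 7-AAD added for viability.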
Background: In flow cytometry, cells or beads pass a laser one at a time.
As to B1, the binding result is “no binding (tested: 100 nM)”.
With B2, the binding result is on record as “no binding (tested: 100 nM)”.
The same measure, in the same setting: the entry for B3 is “no binding (tested: 100 nM)”; for B4 it is “no binding (tested: 100 nM)”.
Same read-out and setting: then B5, with “no binding (tested: 100 nM)”.

Another assay has as its target T2, HEK-TROP2 Δ27-146 (human, UniProt P09758).
T2 construct: deletion of residues 27-146, transiently expressed on HEK cells
T2 sequence (membrane protein on transfected HEK cells, looked up): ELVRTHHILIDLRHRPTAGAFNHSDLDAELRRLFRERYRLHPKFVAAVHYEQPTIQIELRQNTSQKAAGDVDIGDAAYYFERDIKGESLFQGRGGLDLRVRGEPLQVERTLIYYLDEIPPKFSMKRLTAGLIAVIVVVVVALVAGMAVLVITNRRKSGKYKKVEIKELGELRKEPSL
The assay is described as above. Summed up: as §1
Turning to B1, the binding result is reported as “no binding (tested: 100 nM)”.
Take B2: the binding result is “no binding (tested: 100 nM)”.
Same read-out and setting: the entry for B3 is “no binding (tested: 100 nM)”.
Still for that read-out and setting: the entry for B4 is “no binding (tested: 100 nM)”.
Still for that read-out and setting: the entry for B5 is “no binding (tested: 100 nM)”.

A further assay concerns the target T3, recombinant human TROP2 extracellular domain (aa 1-274) comprising His tag (human, UniProt P09758 27-274).
T3 construct: Used here for all assays on recombinant human TROP2 (ELISA, immunoblot, SPR, crystal), although only some of them name the catalogue number; also called human recombinant TROP2; recombinant human TROP2 protein; not shown: His tag
T3 sequence: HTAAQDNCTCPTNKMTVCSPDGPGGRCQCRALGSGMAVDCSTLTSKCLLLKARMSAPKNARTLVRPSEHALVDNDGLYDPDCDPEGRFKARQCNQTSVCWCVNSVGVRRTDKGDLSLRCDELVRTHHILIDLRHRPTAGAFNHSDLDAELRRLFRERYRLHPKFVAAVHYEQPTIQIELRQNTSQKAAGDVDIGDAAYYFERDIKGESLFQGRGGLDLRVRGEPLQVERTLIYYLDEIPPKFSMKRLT
The assay can be described thus: competitive ELISA on coated recombinant human TROP2, competitor KD003-His (14285.7 pM per text), anti-His-HRP. How it is done:
(§2) The epitope characterization was assessed by competitive ELISA (FIG. 8 and FIG. 9). Microplates were coated with human recombinant TROP2 at 4° C. overnight. After washing, plates were blocked with blocking buffer (PBS+2% BSA), for 1 hour at room temperature. Meanwhile, the dilution for anti-TROP2 VHH sdAbs was prepared with blocking buffer making two different dilutions depending on the tag. For sdAbs with His tag, the antibody was diluted to 28571.4 pM. For sdAbs without tag, antibodies were serially diluted from 2857142.9 pM to 0.29 pM (8 dilutions, 10×). After that, equal volume of the his-tagged sdAbs and serial diluted non-tagged sdAbs were mixed, to make the final concentration of his-tagged sdAbs 14285.7 pM and non-tagged sdAbs from 1428571.4 pM to 0.14 pM. After washing two times, the mixed antibody contents were added into the wells and the plates were incubated for 2 hours at room temperature. The HRP-conjugated anti-6× His was diluted to 1:5000 and added to the wells after washing three times. Any unbound conjugate was removed by washing after 1 hour incubation at room temperature, and the colorimetric reaction was performed by adding the same volume of Supersignal ELISA Pico Luminol/Enhancer and SuperSignal ELISA Pico Stable Peroxide Solution and detected on SpectraMax i3x Microplate Reader. Positive and negative controls were included in each plate.
(An ELISA detects its analyte on a solid surface through an enzyme-linked reagent.)
For the molecule B1, the “IC50 (read off the curve)” value is about 40 nM.
The same measure, in the same setting: then B2, with about 40 nM; and B3, with about 40 nM; and B4, with about 60 nM.
On to B5, for which the “IC50 (read off the curve)” value was about 30 nM.

For the next assay, the target named is T3, recombinant human TROP2 extracellular …. The experiment in a line: SPR. For orientation: SPR reads the build-up and loss of mass on a sensor chip optically.
As to B1, the Kd (as a rule, the constant that tells how readily two partners part at equilibrium) worked out at 0.0826 nM; the off-rate constant (koff) (commonly the rate constant with which the complex falls apart) amounted to 7.54e-05 s⁻¹; the kon (as a rule, the second-order rate constant of association) stood at 913000 M⁻¹ s⁻¹.
Consider B2, for which the dissociation constant Kd is 0.0268 nM, the koff stood at 4.27e-05 s⁻¹ and the kon amounted to 1.59e+06 M⁻¹ s⁻¹.
On to B3, for which the Kd worked out at 0.0294 nM, the koff was 4.42e-05 s⁻¹ and the kon came to 1.51e+06 M⁻¹ s⁻¹.
As to B4, the equilibrium dissociation constant (Kd) came out at 0.0432 nM, the koff was found to be 5.69e-05 s⁻¹ and the association rate constant (kon) stood at 1.32e+06 M⁻¹ s⁻¹.
For B5, in that order: 0.0459 nM, 4.88e-05 s⁻¹ and 1.06e+06 M⁻¹ s⁻¹.

For a further assay the target is unchanged. The assay can be described thus: ELISA on coated recombinant TROP2 ECD, 1:5 dilutions from 1000 nM, RLU. How it is done:
TROP2 full-length extracellular domain recombinant proteins including cynomolgus/Rhesus (FIG. 12A), human (FIG. 12B), mouse (FIG. 12C), and rat (FIG. 12D) were coated on 96-well ELISA plates at the concentration of 1 μg/mL. Plates were covered with adhesive plate cover and stored at 4° C. overnight. The next day, plates were washed 3× with washing buffer (PBS with 0.1% Tween™ 20). Plates were blocked with 2% fat-free BSA in washing buffer for 1 hour at 37° C. During the incubation time, the anti-TROP2 sdAbs were diluted in the blocking buffer to the indicated concentrations. In brief, the anti-TROP2 sdAbs starting concentration was 1000 nM and serial diluted 1 in 5 to 0.02048 pM. After blocking, the blocking buffer was removed from the wells and 100 μL of anti-TROP2 sdAbs dilutions were transferred to the corresponding wells. Plates were covered with adhesive plates cover and incubated at 37° C. for 1 hour. During the primary antibody incubation, the secondary antibody (goat anti-human IgG, HRP conjugated) was diluted 1 in 5000 with the blocking buffer. Plates were washed 3× with blocking buffer, followed by secondary antibody incubation for another 1 hour at 37° C. After the secondary antibody incubation, plates were washed 3× with washing buffer and added with 100 μL of ELISA chemiluminescent substrate (Thermofisher). The luminescence signal was detected by SpectraMax i3x at […].
Turning to B1, the EC50 (read off the curve) (as a rule, the concentration that produces a half-maximal response) was about 0.2 nM.
Same read-out and setting: the figure for B2 is about 0.2 nM.
The same measure, in the same setting: the figure for B3 is about 0.2 nM; for B4 it is about 0.2 nM; for B5 it is about 0.2 nM.

The next assay has the same target. The experiment in a line: competitive ELISA on coated recombinant human TROP2, competitor KD002-His (14285.7 pM per text), anti-His-HRP. How it is done: as §2
For B1, the “IC50 (read off the curve)” value is about 40 nM.
Still for that read-out and setting: the figure for B2 is about 40 nM; for B3 it is about 40 nM.
Take B4: the “IC50 (read off the curve)” value was about 60 nM.
Same read-out and setting: the figure for B5 is about 40 nM.
